In patent US20100184658A1 (published 2010):

Tests used:
Experiment in all cases: cell-based or functional assay
PDK1 = molecular target: T1, PDK1 (human (printed as (h)), UniProt O15530 1-556, limits assumed)
T1 sequence (looked up): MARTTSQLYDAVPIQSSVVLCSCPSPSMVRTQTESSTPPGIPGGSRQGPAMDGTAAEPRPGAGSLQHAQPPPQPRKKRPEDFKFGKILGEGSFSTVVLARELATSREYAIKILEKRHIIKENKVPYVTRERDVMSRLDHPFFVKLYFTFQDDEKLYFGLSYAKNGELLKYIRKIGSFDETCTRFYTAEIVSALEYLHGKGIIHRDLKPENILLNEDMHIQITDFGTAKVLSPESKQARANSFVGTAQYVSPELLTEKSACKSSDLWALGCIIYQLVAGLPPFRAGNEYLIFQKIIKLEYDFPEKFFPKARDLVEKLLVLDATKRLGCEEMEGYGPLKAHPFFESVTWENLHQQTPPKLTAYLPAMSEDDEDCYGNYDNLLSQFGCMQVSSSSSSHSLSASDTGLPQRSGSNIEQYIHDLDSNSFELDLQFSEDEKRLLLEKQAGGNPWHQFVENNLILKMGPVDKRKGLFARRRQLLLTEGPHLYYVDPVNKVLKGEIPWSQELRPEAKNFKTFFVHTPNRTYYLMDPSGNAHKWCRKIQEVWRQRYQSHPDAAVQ

[1] = molecular target: T2, SGK (SGK1) Serum/glucocorticoid regulated kinase (human (printed as (h)), UniProt O00141 60-431, limits assumed)
T2 sequence (looked up): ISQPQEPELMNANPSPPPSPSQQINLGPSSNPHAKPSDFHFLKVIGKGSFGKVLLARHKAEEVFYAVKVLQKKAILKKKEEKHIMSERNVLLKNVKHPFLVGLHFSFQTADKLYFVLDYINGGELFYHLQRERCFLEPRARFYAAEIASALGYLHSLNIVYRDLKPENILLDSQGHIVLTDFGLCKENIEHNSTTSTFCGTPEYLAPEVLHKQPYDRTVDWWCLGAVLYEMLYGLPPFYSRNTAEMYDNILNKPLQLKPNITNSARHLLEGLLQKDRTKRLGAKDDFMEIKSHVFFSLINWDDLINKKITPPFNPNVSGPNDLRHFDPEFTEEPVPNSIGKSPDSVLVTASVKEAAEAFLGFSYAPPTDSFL

PRKCZ (PKC zeta) = molecular target: T3, PRKCZ (PKC zeta) (human (printed as (h)), UniProt Q05513 1-592, limits assumed)
T3 sequence (looked up): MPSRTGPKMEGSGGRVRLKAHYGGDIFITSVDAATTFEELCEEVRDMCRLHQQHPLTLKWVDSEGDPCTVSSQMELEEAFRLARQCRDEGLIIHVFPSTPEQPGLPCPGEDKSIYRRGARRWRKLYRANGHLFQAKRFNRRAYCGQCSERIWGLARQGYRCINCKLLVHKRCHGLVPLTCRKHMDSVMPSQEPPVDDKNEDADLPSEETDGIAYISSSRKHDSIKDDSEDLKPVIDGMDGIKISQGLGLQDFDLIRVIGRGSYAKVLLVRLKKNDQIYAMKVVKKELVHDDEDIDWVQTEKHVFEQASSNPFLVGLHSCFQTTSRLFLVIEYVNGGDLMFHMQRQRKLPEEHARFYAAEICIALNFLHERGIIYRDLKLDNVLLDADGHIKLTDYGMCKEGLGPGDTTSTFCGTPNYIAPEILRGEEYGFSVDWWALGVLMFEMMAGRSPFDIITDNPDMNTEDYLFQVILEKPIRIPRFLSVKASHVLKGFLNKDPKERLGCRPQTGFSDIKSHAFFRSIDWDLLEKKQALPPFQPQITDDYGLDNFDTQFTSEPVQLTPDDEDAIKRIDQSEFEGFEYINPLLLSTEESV

MAPK2(h) = MAPK2(h) (human (printed as (h)), UniProt P28482 1-360)
MAPK2(h) (human (printed as (h)), UniProt P28482 1-360), sequence (P28482 whole entry): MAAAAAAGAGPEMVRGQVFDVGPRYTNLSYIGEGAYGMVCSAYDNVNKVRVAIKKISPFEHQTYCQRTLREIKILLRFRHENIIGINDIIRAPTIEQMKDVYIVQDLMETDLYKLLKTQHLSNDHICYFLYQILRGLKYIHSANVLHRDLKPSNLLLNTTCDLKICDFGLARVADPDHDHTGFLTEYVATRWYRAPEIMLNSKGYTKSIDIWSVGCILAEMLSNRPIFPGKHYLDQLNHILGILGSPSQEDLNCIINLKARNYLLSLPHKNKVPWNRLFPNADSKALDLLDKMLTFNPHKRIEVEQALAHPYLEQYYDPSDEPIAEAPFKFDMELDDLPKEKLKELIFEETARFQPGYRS

PKA(h) = PKA(h) (human (printed as (h)), UniProt P17612 1-351)
GSK3β(h) = GSK3β(h) (human (printed as (h)), UniProt P49841 1-420, limits assumed)
GSK3β(h) (human (printed as (h)), UniProt P49841 1-420, limits assumed), sequence (P49841 whole entry): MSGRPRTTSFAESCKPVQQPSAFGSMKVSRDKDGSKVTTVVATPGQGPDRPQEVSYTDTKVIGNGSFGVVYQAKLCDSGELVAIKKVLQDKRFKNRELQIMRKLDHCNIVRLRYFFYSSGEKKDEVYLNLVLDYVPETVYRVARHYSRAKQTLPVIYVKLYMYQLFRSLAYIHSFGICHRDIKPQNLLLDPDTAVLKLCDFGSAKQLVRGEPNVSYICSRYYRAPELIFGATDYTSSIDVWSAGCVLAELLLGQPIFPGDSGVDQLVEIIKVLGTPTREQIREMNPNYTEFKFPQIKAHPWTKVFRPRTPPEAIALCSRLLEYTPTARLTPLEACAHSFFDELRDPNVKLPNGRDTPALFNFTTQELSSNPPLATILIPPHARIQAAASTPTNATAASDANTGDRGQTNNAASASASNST

IKBKB (IKK beta) IKK2 = molecular target: T4, IKBKB (IKK beta) IKK2 (human (printed as (h)), UniProt O14920 1-756, limits assumed)
T4 sequence (looked up): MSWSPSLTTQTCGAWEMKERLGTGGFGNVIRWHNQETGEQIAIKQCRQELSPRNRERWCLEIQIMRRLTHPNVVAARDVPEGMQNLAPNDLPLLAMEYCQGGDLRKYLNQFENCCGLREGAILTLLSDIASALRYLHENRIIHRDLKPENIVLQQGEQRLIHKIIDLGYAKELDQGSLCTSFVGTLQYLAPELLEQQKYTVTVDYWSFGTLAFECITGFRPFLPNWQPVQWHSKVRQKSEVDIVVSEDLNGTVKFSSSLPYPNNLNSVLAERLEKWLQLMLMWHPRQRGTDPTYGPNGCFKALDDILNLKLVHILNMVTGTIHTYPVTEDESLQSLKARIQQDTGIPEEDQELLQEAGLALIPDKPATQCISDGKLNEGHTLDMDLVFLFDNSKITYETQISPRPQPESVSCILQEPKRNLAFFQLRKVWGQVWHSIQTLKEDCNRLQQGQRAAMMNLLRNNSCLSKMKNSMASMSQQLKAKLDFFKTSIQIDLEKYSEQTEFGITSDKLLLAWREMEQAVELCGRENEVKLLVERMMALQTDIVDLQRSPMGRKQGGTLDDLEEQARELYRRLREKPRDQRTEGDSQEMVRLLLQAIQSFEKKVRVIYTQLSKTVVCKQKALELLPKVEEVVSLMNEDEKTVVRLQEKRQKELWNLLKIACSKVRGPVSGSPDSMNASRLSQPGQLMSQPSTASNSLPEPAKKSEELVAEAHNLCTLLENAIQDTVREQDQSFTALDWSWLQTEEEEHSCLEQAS

MAPK1(h) = MAPK1(h) (human (printed as (h)), UniProt P28482 1-360, limits assumed)
MAPK1(h) (human (printed as (h)), UniProt P28482 1-360, limits assumed), sequence (P28482 whole entry): as the sequence (P28482 whole entry) above

PRKCB2 (PKC beta II) = PRKCB2 (PKC beta II) (human (printed as (h)), UniProt P05771-2 1-673)
PRKCB2 (PKC beta II) (human (printed as (h)), UniProt P05771-2 1-673), sequence (P05771 other isoform, or with tags, fused parts or gaps limits assumed): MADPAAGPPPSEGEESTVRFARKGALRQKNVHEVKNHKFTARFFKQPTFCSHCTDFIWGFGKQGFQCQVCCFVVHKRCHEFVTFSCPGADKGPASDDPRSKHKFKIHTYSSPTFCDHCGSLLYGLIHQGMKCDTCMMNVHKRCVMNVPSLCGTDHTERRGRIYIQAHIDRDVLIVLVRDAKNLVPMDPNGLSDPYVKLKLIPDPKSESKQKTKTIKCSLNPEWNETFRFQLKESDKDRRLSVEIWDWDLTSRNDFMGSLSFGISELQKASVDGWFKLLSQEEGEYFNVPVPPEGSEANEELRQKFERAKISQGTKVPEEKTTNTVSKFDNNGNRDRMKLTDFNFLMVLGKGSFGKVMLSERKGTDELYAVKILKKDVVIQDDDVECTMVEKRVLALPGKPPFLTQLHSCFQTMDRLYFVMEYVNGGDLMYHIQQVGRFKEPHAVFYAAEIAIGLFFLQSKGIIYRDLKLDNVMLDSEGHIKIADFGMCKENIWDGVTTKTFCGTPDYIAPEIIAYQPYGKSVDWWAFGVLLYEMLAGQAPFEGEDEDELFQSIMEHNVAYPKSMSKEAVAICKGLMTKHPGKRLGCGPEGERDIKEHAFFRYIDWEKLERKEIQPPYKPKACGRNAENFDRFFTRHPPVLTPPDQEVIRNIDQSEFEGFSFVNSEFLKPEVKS

SGRPPMIVWFNRPFLIAVSHTHGQTILFMAKVINPVGA [D3 peptide]
D3 at 0.1 µM % activity (PDK1): 98%
D3 at 1 µm % activity (PDK1): 108%
D3 at 0.1 µM % activity [1]: 74%
D3 at 1 µm % activity [1]: 5%
IC50 [1]: 325 nM
D3 at 0.1 µM % activity (PRKCZ (PKC zeta)): 95%
D3 at 1 µm % activity (PRKCZ (PKC zeta)): 42%
IC50 (PRKCZ (PKC zeta)): 1040 nM
D3 at 0.1 µM % activity (MAPK2(h)): 96%
D3 at 1 µm % activity (MAPK2(h)): 96%
D3 at 0.1 µM % activity (PKA(h)): 115%
D3 at 1 µm % activity (PKA(h)): 105%
D3 at 0.1 µM % activity (GSK3β(h)): 101%
D3 at 1 µm % activity (GSK3β(h)): 100%
D3 at 0.1 µM % activity (IKBKB (IKK beta) IKK2): 103%
D3 at 1 µm % activity (IKBKB (IKK beta) IKK2): 71%
D3 at 0.1 µM % activity (MAPK1(h)): 86%
D3 at 1 µm % activity (MAPK1(h)): 92%
D3 at 0.1 µM % activity (PRKCB2 (PKC beta II)): 101%
D3 at 1 µm % activity (PRKCB2 (PKC beta II)): 103%
